{
  "source": "patent US20040236073A1",
  "about": "(MEDICAL RESEARCH COUNCIL, published 2004)",
  "proteins": {"B1": {"name": "wild-type NK1 fragment of HGF/SF (amino acids 28-210) (ligand)", "chain": "YAEGQRKRRNTIHEFKKSAKTTLIKIDPALKIKTKKVNTADQCANRCTRNKGLPFTCKAFVFDKARKQCLWFPFNSMSSGVKKEFGHEFDLYENKDYIRNCIIGKGRSYKGTVSITKSGIKCQPWSSMIPHEHSFLPSSYRGKDLQENYCRNPRGEEGGPWCFTSNPEVRYEVCDIPQCSEVE", "notes": "Expressed in P. pastoris; Forms a head-to-tail dimer in the crystals and a heparin-dependent dimer in solution; also called wt-NK1; wt NK1"}, "B2": {"name": "NK1 mutant HP11 (R73E:R76E) (ligand)", "chain": "B1 chain with R46E, R49E", "notes": "N domain reverse-charge mutant of NK1; Expressed in P. pastoris"}, "B3": {"name": "NK1 mutant 1K1 (K132E:R134E) (ligand)", "chain": "B1 chain with K105E, R107E", "notes": "K domain reverse-charge mutant of NK1"}, "B4": {"name": "NK1 mutant 1K2 (K170E:R181E) (ligand)", "chain": "B1 chain with K143E, R154E", "notes": "as for B3"}},
  "key": {"[1]": {"target": "the molecule itself", "test": "X-ray crystal structure of the NK1-heparin complex, crystal type A; self-association"}, "[2]": {"target": "the molecule itself", "test": "BS3 cross-linking with western blot, and gel filtration (Superdex 200), with equimolar 14-mer heparin; self-association", "protocol": "(§1) This was carried out by gel filtration chromatography and cross-linking experiments. For gel filtration, wt- or mutant NK1 (0.5 mg/ml) were incubated for 2 hours in the presence or absence of equimolar concentration of 14-mer heparin in phosphate buffered saline (PBS) adjusted to 300 mM NaCl. Samples were then loaded onto an HR30 Superdex 200 column (Ammersham Pharmacia Biotech) and eluted at 0.5 ml/min.\n(§2) For cross-linking, 10 μl of wt- or mutant-NK1 (0.1 mg/ml) were incubated in the absence or presence of an equimolar concentration of 14-mer heparin in PBS. After 2 hours incubation at room temperature, 1 μl of crosslinker (BS³, Pierce) was added at 100 fold molar excess, the reaction was continued for 30 minutes and then quenched with 1 μl of 1M Tris-Cl, pH 7.4. Reaction products were loaded onto 15% SDS-polyacrylamide gels and blotted onto a nitrocellulose membrane (Schleicher & Schuell). […] HRP activity was detected after 3 further washes in PBS+0.2% Tween 20 using a chemiluminescent substrate (Pierce).\n(§3) Cross-linking (Schwall et al., 1996) and gel filtration (Chirgadze et al., 1999) experiments were employed first in order to characterize heparin-mediated oligomerization of wt NK1 in solution. […] Cross-linked proteins were analyzed by western blotting and detected with an anti-HGF/SF polyclonal antibody (1W53). […]"}, "[3]": {"target": "the molecule itself", "test": "BS3 cross-linking with western blot, and gel filtration, with equimolar 14-mer heparin; self-association", "protocol": "as §1, §2, §3"}},
  "note": "Numbering of substitutions follows the chain as printed. In names and notes the source's numbering stands.",
  "data": [
    {"protein": "B1", "values": [
      {"measurement": "binding result", "setting": "[1]", "result": "binds"}
    ]},
    {"protein": "B2", "values": [
      {"measurement": "binding result", "setting": "[2]", "result": "no binding"}
    ]},
    {"protein": "B3", "values": [
      {"measurement": "binding result", "setting": "[3]", "result": "binds"}
    ]},
    {"protein": "B4", "values": [
      {"measurement": "binding result", "setting": "[3]", "result": "binds"}
    ]}
  ]
}
